The text below walks through data of patent US20220193237A1 (Bristol-Myers Squibb, published 2022).

Assay [1] addresses T1, monomeric human CTLA-4 (human, UniProt P16410 36-161, limits assumed).
T1 construct: Soluble monomeric analyte in SPR; also called huCTLA-4
T1 sequence: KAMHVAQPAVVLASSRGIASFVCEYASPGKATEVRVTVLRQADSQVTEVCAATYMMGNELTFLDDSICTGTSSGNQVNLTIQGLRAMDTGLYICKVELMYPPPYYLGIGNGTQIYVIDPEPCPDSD
Kind of assay: SPR, captured Fab, pH 7.4. On the procedure:
(§1) Unless otherwise indicated, experiments were performed with a BIACORE® SPR surface plasmon resonance spectrometer (Biacore AB, Uppsala, Sweden). Antibodies were tested as monovalent Fab fragments to simplify analysis.
(§2) Monomeric human CTLA-4 was flowed as analyte with up to 2 μM top concentration. Between cycles, the capture surface was regenerated with 75 mM phosphoric acid. Experiments were run on a BIACORE® T200 instrument at 37° C. Running buffers were HEPES buffered saline for pH 7.4 experiments and Bis-Tris buffered saline for lower pH experiments. […] Double referenced sensorgrams were fitted to a 1:1 Langmuir binding model with mass transport to determine equilibrium dissociation constants (KD), as well as association (kₐ) and dissociation (kd) rate constants where appropriate.

The target in assay [2] is T1, monomeric human CTLA-4. Put plainly: SPR, captured Fab, pH 6.0 vs 7.4. On the procedure:
(§3) Binding of selected variants to human CTLA-4 was determined essentially as described in Example 3. […] Nomenclature and sequences for these antibodies is provided at Tables 6 and 7, and in the sequence listing as summarized at Table 8.
as §2
A general note: Surface plasmon resonance follows binding to a sensor surface in real time, without labels.

Assay [3] deals with T1, monomeric human CTLA-4. Put plainly: SPR, captured Fab, pH 6.0 vs 7.4. On the procedure:
as §1, §2
This is another data set of the same source.

Assay [4] addresses T1, monomeric human CTLA-4. Put plainly: SPR, captured Fab, pH 7.4. On the procedure:
as §3, §2
The source holds these as a separate data set.

Assay [5] concerns the target T1, monomeric human CTLA-4. Put plainly: SPR, captured Fab, pH 6.0. Here is the method:
as §3, §2

The target of assay [6] is T1, monomeric human CTLA-4. Kind of assay: SPR, captured Fab, pH 6.0. On the procedure:
as §1, §2
The source holds these as a separate data set.

Assay [7] has as its target T1, monomeric human CTLA-4. Put plainly: SPR, captured Fab, first experiment of Table 3. Here is the method: (§4) See Example 3. Antibodies were tested as monovalent Fab fragments to simplify analysis.
as §2

Assay [8] addresses T1, monomeric human CTLA-4. Put plainly: SPR, captured Fab, pH 6.0 vs 7.4. Here is the method:
as §4, §2
The source holds these as a separate data set.

Assay [9] has as its target T1, monomeric human CTLA-4. Put plainly: SPR, captured Fab, pH 7.4. Here is the method:
as §4, §2
This is another data set of the same source.

Assay [10] deals with T1, monomeric human CTLA-4. Put plainly: SPR, captured Fab, pH 6.0. Here is the method: as §4, §2
The source holds these as a separate data set.

In assay [11] the target is T1, monomeric human CTLA-4. Kind of assay: SPR, captured Fab, second experiment of Table 3. Here is the method: as §4, §2
The target in assay [12] is T1, monomeric human CTLA-4. Put plainly: SPR, captured Fab, pH 6.0 vs 7.4, second experiment. On the procedure: as §4, §2
The target in assay [13] is T1, monomeric human CTLA-4. Kind of assay: SPR, pH 6.0 and pH 7.5 (FIG. 6). Here is the method:
as §1, §2

For assay [14], the target named is T1, monomeric human CTLA-4. Put plainly: SPR, captured Fab, pH 7.4, second experiment. On the procedure:
as §4, §2

Assay [15] has as its target T1, monomeric human CTLA-4. Kind of assay: SPR, captured Fab, pH 6.0, second experiment. Here is the method:
as §4, §2

Assay [16] deals with T2, monomeric cyno CTLA-4 (cynomolgus macaque (Macaca fascicularis), UniProt G7PL88 36-161).
T2 construct: also called CTLA-4 from the cynomolgus macaque Macaca fascicularis
T2 sequence: T1 sequence with S14N, I18T, L106M
Put plainly: SPR, Fab, monomeric cyno CTLA-4 as analyte; koff (s^-1, linear axis 0 to 0.3) plotted against pH. On the procedure: The pH dependence of binding of selected antibodies of the present invention to human CTLA-4 and cyno CTLA-4 was measured by surface plasmon resonance (SPR) spectroscopy, essentially as described in Example 3. Briefly, antibodies were studied as monovalent Fab fragments. Anti-human kappa polyclonal capture antibody (Southern Biotech, Ala. USA) was immobilized on a ethylenediamine-blocked CM4 sensor chip in a Biacore T200 surface plasmon resonance system. Fab fragments of selected antibodies of the present invention were then captured on one flow cell each. […] Running buffer was 20 mM BisTris, 150 mM NaCl, 0.05% Tween-20, 1 g/L BSA, at a pH ranging from 5.5 to 7.4 in 0.1-0.2 pH unit intervals (12 total). The surface was regenerated with 1/200 H₃PO₄ between cycles. […] Where required, the Rₘₐₓ was fixed by calculating expected binding based on capture level and apparent activity from other fits for the same Fab.

The target of assay [17] is T3, human CTLA-4 on 58 α-β-CTLA-4/CD3 ζ cells (human; mouse (mCD3ζ)).
T3 construct: also called 58αβ-hCTLA4/mCD3ζ cells; 58αβ-CTLA4/mCD3ζ cells
Kind of assay: flow cytometry (APC mean FI), Fab on 58αβ-CTLA4/mCD3ζ cells, pH 6.2. Here is the method: Antibodies were titrated from 100 μg/mL at a 1:4 dilution across 12 points in pH-specific buffers and incubated for 30-60 minutes. Buffers contained HBSS, 2% FBS^HI, 0.02% sodium azide, 2 mM EDTA, and sodium phosphate buffer (pH 5.4). Sodium phosphate buffer was added until desired pH was reached (7.2, 6.7, 6.2). Approximately 3e5 cells/well were tested for each cell line. […] Detection was done with a monovalent anti-hKappa secondary nanobody conjugated to Alexa647 and used at a dilution of 1:2000. Cells were fixed with BD Fix Solution I for 30 minutes prior to resuspension in pH-specific buffers and reading on the cytometer (BD Fortessa).
The experimental protocol was the same as used to obtain the data of FIGS. 16A-C.
On the technique in general: In flow cytometry, cells or beads pass a laser one at a time.

Changes are numbered by the printed parent chain. Names and notes keep the numbering of the source.

B1: ipi.1 Fab (Fab, V domains shown)
VH: QVQLVESGGGVVQPGRSLRLSCAASGFTFSSYHMHWVRQAPGKGLEWVTFISYDGNNKYYADSVKGRFTISRDNSKNTLYLQMNSLRAEDTAIYYCARTGWLGPFDYWGQGTLVTVSS
VL: not shown
notes: Tested as monovalent Fab; also called T33H (Kabat)
One may read the Kd as the constant that tells how readily two partners part at equilibrium. The term koff denotes a measure of how fast the partners let go of each other. Read a high koff as fast dissociation. One may read the kon as the rate constant with which the complex forms. A high value points to faster complex formation. In assay [1], B1 returned a Kd of 17 nM, a koff of 0.011 s⁻¹ and a kon of 650000 M⁻¹ s⁻¹. Also, in assay [2], the “KD 7.4/6 (APBP)” value is 1.1, the “ka 6/7.4” value came to 1.1 and the “t1/2 6/7.4” value came out at 1. Moreover, in assay [3], the “KD 7.4/6 (APBP)” value came out at 1.2. Also, in assay [4], the Kd stood at 8.6 nM, the kon was determined as 840000 M⁻¹ s⁻¹ and the “t1/2” value amounted to 1.6 min. In [5], the Kd was 7.7 nM, the kon amounted to 960000 M⁻¹ s⁻¹ and the “t1/2” value came to 1.57 min. In assay [6], the affinity, expressed as Kd, was 20 nM; the koff was found to be 0.011 s⁻¹; the kon stood at 560000 M⁻¹ s⁻¹.

B2: ipi.17 Fab (Fab, V domains shown)
VH: B1 VH with H33T
VL: not shown
notes: Tested as monovalent Fab; also called S28E
Turning to B2, the “ratio of KD (7.4/6.0) normalized to the ratio of ipilimumab” value (“ratio of KD (7.4/6.0) normalized” below) in assay [7] was determined as 1.4. For the same molecule, in assay [2], the “KD 7.4/6 (APBP)” value stood at 1.3, the “ka 6/7.4” value is 1.2 and the “t1/2 6/7.4” value is 1.1. Also, in [8], the “KD 7.4/6 (APBP)” value was found to be 1.4, the “ka 6/7.4” value was 1.2 and the “kd 7.4/6” value is 1.1. In assay [9], this molecule registered a Kd of 19 nM, a koff of 0.016 s⁻¹ and a kon of 850000 M⁻¹ s⁻¹. Further, in assay [4], the Kd came to 19 nM, the kon worked out at 850000 M⁻¹ s⁻¹ and the “t1/2” value came to 0.717 min. Further, in assay [5], binding was characterised by a dissociation constant (Kd) of 14 nM, the kon turned out to be 1e+06 M⁻¹ s⁻¹ and the “t1/2” value was 0.767 min. In assay [10], this molecule registered a Kd of 14 nM, a koff of 0.015 s⁻¹ and a kon of 1e+06 M⁻¹ s⁻¹.

B3: ipi.25 Fab (Fab, V domains shown)
VH: B1 VH with H33T
VL: not shown
notes: Tested as monovalent Fab; also called LCDR1 S28E/S31D; LCDR1 S27aE/S30D (Kabat)
As to B3, the entries for the “ratio of KD (7.4/6.0) normalized” value in assay [7] and in assay [11] were 4 and 6.3, respectively. Moreover, the figures for the “KD 7.4/6 (APBP)” value in [12], in assay [2] and in assay [8] were 5, 4.1 and 4, respectively. The entries for the “ka 6/7.4” value in [12], in assay [2] and in assay [8] were 2.2, 1.7 and 1.7, respectively. Also, the “kd 7.4/6” value in [12] and in assay [8] was 2.3 throughout. In addition, the “CAPBP (ratio of KD normalized to ipilimumab)” value in assay [13] stood at 6.3. In assay [2], the “t1/2 6/7.4” value amounted to 2.4. Besides, the Kd in [9] was 25 nM; in [4], 25 nM; in assay [14], 37 nM; in [5] it was 6.2 nM; in assay [15] it was 7.4 nM; in [10], 6.2 nM. The koff was 0.018 s⁻¹ in assay [9], 0.017 s⁻¹ in assay [14], 0.0074 s⁻¹ in assay [15] and 0.0077 s⁻¹ in assay [10]. In addition, the kon in assay [9] stood at 720000 M⁻¹ s⁻¹; in [4] it was 720000 M⁻¹ s⁻¹; in assay [14], 460000 M⁻¹ s⁻¹; in [5], 1.2e+06 M⁻¹ s⁻¹; in assay [15] it was 1e+06 M⁻¹ s⁻¹; in [10], 1.2e+06 M⁻¹ s⁻¹. The results for the “t1/2” value in assay [4] and in assay [5] were 0.65 min and 1.5 min, respectively.

B4: ipi.18 Fab (Fab, V domains shown)
VH: B1 VH with H33T
VL: not shown
notes: Tested as monovalent Fab; also called S31D
As for B4, the “ratio of KD (7.4/6.0) normalized” value in [7] was 3.2. For the same molecule, in [2], the “KD 7.4/6 (APBP)” value is 3.1, the “ka 6/7.4” value is 1.7 and the “t1/2 6/7.4” value stood at 1.9. In [8], the “KD 7.4/6 (APBP)” value is 3.2, the “ka 6/7.4” value was determined as 1.7 and the “kd 7.4/6” value turned out to be 1.9. In [9], this molecule registered a dissociation constant (Kd) of 28 nM, a koff of 0.018 s⁻¹ and a kon of 640000 M⁻¹ s⁻¹. For the same molecule, in assay [4], binding was characterised by a dissociation constant (Kd) of 28 nM, the kon was found to be 640000 M⁻¹ s⁻¹ and the “t1/2” value was determined as 0.65 min. Besides, in assay [5], the Kd was 8.8 nM, the kon came to 1.1e+06 M⁻¹ s⁻¹ and the “t1/2” value amounted to 1.25 min. In [10], this molecule displayed a Kd of 8.8 nM, a koff of 0.0093 s⁻¹ and a kon of 1.1e+06 M⁻¹ s⁻¹.

B5: ipi.105 Fab (Fab, V domains shown)
VH: B1 VH with S31H, H33T, N56H
VL: EIVLTQSPGTLSLSPGERATLSCRASQEVGESELAWYQQKPGQAPRLLIYGAFSRATGIPDRFSGSGSGTDFTLTISRLEPEDFAVYYCQQYGSSPWTFGQGTKVEIKR
notes: Tested as monovalent Fab
A word on the EC50 (read off the curve): it is the concentration at which the effect is half-maximal. A high value points to lower potency in that assay. For the molecule B5, the binding result in [16] is “binds”. Further, in assay [2], the “KD 7.4/6 (APBP)” value came to 76. The Kd in assay [4] is 390 nM. In assay [5], binding was characterised by a dissociation constant (Kd) of 2.5 nM, the kon was 1.3e+06 M⁻¹ s⁻¹ and the “t1/2” value came out at 3.62 min. Moreover, the “EC50 (read off the curve)” value in assay [17] is around 0.2 µg/mL.

B6: ipi.57 Fab (Fab, V domains shown)
VH: B1 VH with S31H, H33T
VL: not shown
notes: Tested as monovalent Fab; also called HCDR1 S31H
Regarding B6, the “CAPBP (ratio of KD normalized to ipilimumab)” value in assay [13] was 5.5. In addition, in assay [2], the “KD 7.4/6 (APBP)” value is 3.5, the “ka 6/7.4” value was found to be 1.3 and the “t1/2 6/7.4” value came to 2.7. In [4], the Kd amounted to 28 nM, the kon came to 800000 M⁻¹ s⁻¹ and the “t1/2” value was 0.533 min. Further, in [5], the Kd came to 7.9 nM, the kon was 1.1e+06 M⁻¹ s⁻¹ and the “t1/2” value was 1.38 min.

B7: ipi.101 Fab (Fab, V domains shown)
VH: B1 VH with S31H, H33T, N56H
VL: not shown
notes: Tested as monovalent Fab
For the molecule B7, the binding result in [16] is “binds”. Also, in [2], the “KD 7.4/6 (APBP)” value turned out to be 31, the “ka 6/7.4” value was 2.5 and the “t1/2 6/7.4” value worked out at 12. Further, in [4], binding was put at a Kd of 45 nM, the association rate constant (kon) came to 490000 M⁻¹ s⁻¹ and the “t1/2” value is 0.533 min. In [5], the Kd was determined as 1.5 nM, the kon was determined as 1.2e+06 M⁻¹ s⁻¹ and the “t1/2” value amounted to 6.42 min. In addition, the “EC50 (read off the curve)” value in assay [17] is around 0.07 µg/mL.
